Source: US20170305975A1

What was measured:
[1] = target: amyloid-β 1-42 fibers (fAβ42) (human) (UniProt P05067); assay: Aβ binding competition assay; ArgC-treated M13 as competitor of Alexa-488 M13
[2] = target: amyloid-β 1-42 fibers (fAβ42) (human) (UniProt P05067); assay: Aβ binding competition assay; ArgC-treated M13 as competitor of Alexa-488 M13; fifth bar, label printed [5 FOLD] (the text speaks of 15 fold)

Chain of amyloid-β 1-42 fibers (fAβ42) (human) (P05067 672-713 limits assumed): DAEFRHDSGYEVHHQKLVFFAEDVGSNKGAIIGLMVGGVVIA

“M13Δg3p (M13 phage with g3p removed by ArgC protease)” was tested. Which ALEXA LABELED 488 PELLETED [1] did it give?
The ALEXA LABELED 488 PELLETED was 86.7.

And the ALEXA LABELED 488 PELLETED [2]?
The ALEXA LABELED 488 PELLETED was 85.9.
